Measured values reported in patent publication US20060233706A1, “Marked peptides having affinity for a phospholipid and uses” (COMMISSARIAT A L'ENERGIE, priority 2002, published 2006).

How the values were obtained:
[1] = prior art observation; cited from earlier work
[2] = Labelling of the kidney in the same rats (fluorescence microscopy of kidney sections); type: in vivo; settings: 200 μg into the jugular vein, 60 minutes, labelling linked to partial elimination of the products
Protocol: Briefly, four rats (300 g each) were anaesthetized, intubated and ventilated. Myocardial ischaemia was triggered by a transient occlusion of the coronary artery. After 30 minutes of occlusion, the coronary artery was reperfused for one hour.
At the end of the reperfusion period, the AFIM-fluorescein peptides of Example 6 were injected into the jugular vein in an amount of 200 μg of peptide for each of two of the rats in a total volume of 1 ml.
By way of comparison, 200 μg of annexin 5-fluorescein (compounds of the prior art) were injected under the same conditions for each of the other two rats in a total volume of 1 ml.
The rats were sacrificed after 60 minutes.
Five organs were stored for this study: the heart, the lung, the kidney, the liver and the brain. They were washed and rinsed in the presence of formalin. […]
A few sections were stained with haematoxylin. The sections were examined under a fluorescence microscope and the adjacent sections stained with haematoxylin were examined with a visible light microscope. The sections stained with haematoxylin (labelled H1 and H2 respectively in the appended FIGS. 1 and 2) allow visualisation of the architecture of the tissues and fluorescence microscopy to detect the labelling with AFIM-fluorescein (AFIM-F) or with annexin 5-fluorescein (A5-F).

annexin 5: prior art annexin protein that binds anionic phospholipids in a calcium-dependent manner
Toxicity [1]: renal toxicity | Labelling of the entire renal tissue [2]: strongly labelled
